PMC9482650, “Quantitative fragmentomics allow affinity mapping of interactomes” (Nature Communications, 2022)

T1: TX1BP3, O14907
T1 sequence (O14907 10-122, limits assumed, looked up): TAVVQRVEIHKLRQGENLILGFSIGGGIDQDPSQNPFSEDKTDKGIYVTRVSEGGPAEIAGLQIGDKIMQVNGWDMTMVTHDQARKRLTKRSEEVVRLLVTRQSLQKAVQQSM

T2: MPP2, Q14168
T2 sequence (Q14168 180-250, limits assumed, looked up): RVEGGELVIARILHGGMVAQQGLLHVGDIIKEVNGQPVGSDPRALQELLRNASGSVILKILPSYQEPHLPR

T3: APBA3_1, O96018
T3 sequence (O96018 389-490, limits assumed, looked up): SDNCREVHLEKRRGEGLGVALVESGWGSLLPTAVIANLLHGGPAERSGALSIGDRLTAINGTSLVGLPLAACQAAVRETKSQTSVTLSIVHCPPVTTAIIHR

T4: APBA1_2, Q02410
T4 sequence (Q02410 742-832, limits assumed, looked up): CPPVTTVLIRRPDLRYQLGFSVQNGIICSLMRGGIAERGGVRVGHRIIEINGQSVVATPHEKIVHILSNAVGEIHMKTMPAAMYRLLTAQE

T5: DLG3_2, Q92796
T5 sequence (Q92796 221-321, limits assumed, looked up): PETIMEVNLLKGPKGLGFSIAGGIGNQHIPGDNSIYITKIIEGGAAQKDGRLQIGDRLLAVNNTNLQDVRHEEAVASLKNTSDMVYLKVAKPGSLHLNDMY

T6: LNX2_2, Q8N448
T6 sequence (Q8N448 334-432, limits assumed, looked up): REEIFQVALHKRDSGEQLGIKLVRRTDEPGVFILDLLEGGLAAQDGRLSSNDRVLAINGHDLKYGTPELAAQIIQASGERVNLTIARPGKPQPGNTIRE

T7: GRIP1_2, Q9Y3R0
T7 sequence (Q9Y3R0 145-248, limits assumed, looked up): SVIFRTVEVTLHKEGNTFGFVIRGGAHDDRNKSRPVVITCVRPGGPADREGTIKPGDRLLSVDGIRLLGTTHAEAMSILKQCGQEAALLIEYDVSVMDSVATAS

T8: DLG3_1, Q92796
T8 sequence (Q92796 125-227, limits assumed, looked up): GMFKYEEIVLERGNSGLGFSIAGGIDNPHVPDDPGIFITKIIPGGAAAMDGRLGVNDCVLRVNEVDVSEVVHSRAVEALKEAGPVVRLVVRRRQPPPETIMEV

T9: RADIL, Q96JH8
T9 sequence (Q96JH8 971-1071, limits assumed, looked up): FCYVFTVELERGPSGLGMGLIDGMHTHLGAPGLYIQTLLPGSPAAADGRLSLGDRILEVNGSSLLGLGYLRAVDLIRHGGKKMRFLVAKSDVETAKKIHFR

T10: MPDZ_5, O75970
T10 sequence (O75970 695-796, limits assumed, looked up): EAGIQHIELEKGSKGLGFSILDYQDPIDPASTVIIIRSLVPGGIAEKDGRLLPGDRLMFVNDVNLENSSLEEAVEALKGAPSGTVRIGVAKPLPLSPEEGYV

T11: SNTB1, Q13884
T11 sequence (Q13884 107-205, limits assumed, looked up): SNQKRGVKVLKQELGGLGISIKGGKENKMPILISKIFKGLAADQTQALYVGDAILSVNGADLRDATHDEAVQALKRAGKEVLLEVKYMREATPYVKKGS

T12: APBA1_1, Q02410
T12 sequence (Q02410 651-752, limits assumed, looked up): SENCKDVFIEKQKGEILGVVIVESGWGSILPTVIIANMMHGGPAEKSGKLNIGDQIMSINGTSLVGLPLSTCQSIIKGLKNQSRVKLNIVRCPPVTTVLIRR


Key:
Assay in all cases: holdup assay
Parameters in all cases: key: below the threshold = too weak to quantify, mostly under pKd 3.1 to 4
Conditions in all cases: plain residues with an end cap or a label only (N-terminal biotin on a linker: ado-ado)
PICK1, Q9NRD5 = molecular target: PICK1, Q9NRD5
PDZRN4_1, Q6ZMN7 = molecular target: PDZRN4_1, Q6ZMN7
Inadl_10, Q8NI35 = molecular target: Inadl_10, Q8NI35
TX1BP3, O14907 = molecular target: T1, TX1BP3, O14907
MPP2, Q14168 = molecular target: T2, MPP2, Q14168
APBA3_1, O96018 = molecular target: T3, APBA3_1, O96018
TJP2_1, Q9UDY2 = molecular target: TJP2_1, Q9UDY2
APBA1_2, Q02410 = molecular target: T4, APBA1_2, Q02410
DLG3_2, Q92796 = molecular target: T5, DLG3_2, Q92796
LNX2_2, Q8N448 = molecular target: T6, LNX2_2, Q8N448
MAGI3_2, Q5TCQ9 = molecular target: MAGI3_2, Q5TCQ9
GRIP1_2, Q9Y3R0 = molecular target: T7, GRIP1_2, Q9Y3R0
DLG2_2, Q15700 = molecular target: DLG2_2, Q15700
CASK, O14936 = molecular target: CASK, O14936
DLG3_1, Q92796 = molecular target: T8, DLG3_1, Q92796
DLG4_3, P78352 = molecular target: DLG4_3, P78352
RADIL, Q96JH8 = molecular target: T9, RADIL, Q96JH8
DLG1_2, Q12959 = molecular target: DLG1_2, Q12959
MPDZ_5, O75970 = molecular target: T10, MPDZ_5, O75970
TJP1_2, Q07157 = molecular target: TJP1_2, Q07157
LAP2, Q96RT1 = molecular target: LAP2, Q96RT1
MAGI2_4, Q86UL8 = molecular target: MAGI2_4, Q86UL8
LNX1_2, Q8TBB1 = molecular target: LNX1_2, Q8TBB1
SNTB1, Q13884 = molecular target: T11, SNTB1, Q13884
ARHGEF12, Q9NZN5-2 = molecular target: ARHGEF12, Q9NZN5-2
APBA1_1, Q02410 = molecular target: T12, APBA1_1, Q02410

Chain of MAGI2_4, Q86UL8 (Q86UL8 772-865): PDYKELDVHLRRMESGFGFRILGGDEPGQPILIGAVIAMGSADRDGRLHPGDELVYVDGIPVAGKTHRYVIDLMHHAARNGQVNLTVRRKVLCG
Chain of MAGI3_2, Q5TCQ9 (Q5TCQ9 398-503): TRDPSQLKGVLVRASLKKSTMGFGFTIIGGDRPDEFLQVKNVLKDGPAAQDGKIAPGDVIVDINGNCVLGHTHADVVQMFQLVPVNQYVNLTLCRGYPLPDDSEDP
Chain of PICK1, Q9NRD5 (Q9NRD5 17-115): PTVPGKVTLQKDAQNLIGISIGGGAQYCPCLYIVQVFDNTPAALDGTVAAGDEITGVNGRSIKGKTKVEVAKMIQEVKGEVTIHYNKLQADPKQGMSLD
Chain of DLG2_2, Q15700 (Q15700 189-283): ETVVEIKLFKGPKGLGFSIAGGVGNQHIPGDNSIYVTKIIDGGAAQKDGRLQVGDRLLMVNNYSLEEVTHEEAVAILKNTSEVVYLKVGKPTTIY
Chain of DLG1_2, Q12959 (Q12959 314-412): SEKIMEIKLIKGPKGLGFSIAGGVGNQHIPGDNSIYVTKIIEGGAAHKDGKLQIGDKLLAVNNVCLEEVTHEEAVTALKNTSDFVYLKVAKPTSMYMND
Chain of Inadl_10, Q8NI35 (Q8NI35 1673-1763): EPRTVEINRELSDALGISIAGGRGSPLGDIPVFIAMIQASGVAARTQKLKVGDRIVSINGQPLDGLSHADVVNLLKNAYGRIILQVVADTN
Chain of DLG4_3, P78352 (P78352 306-403): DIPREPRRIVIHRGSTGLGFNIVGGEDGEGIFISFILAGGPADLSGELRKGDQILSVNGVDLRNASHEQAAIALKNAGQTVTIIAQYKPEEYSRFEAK
Chain of CASK, O14936 (O14936 487-570): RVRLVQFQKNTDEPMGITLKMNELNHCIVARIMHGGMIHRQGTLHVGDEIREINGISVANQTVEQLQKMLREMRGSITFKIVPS
Chain of PDZRN4_1, Q6ZMN7 (Q6ZMN7 213-318): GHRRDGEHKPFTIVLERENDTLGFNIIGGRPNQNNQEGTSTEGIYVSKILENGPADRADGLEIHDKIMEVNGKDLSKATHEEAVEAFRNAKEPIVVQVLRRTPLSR
Chain of TJP2_1, Q9UDY2 (Q9UDY2 24-128): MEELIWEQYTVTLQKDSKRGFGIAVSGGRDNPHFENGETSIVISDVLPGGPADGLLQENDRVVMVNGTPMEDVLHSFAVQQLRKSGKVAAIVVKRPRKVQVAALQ
Chain of LAP2, Q96RT1 (Q96RT1 other isoform, or with tags, fused parts or gaps): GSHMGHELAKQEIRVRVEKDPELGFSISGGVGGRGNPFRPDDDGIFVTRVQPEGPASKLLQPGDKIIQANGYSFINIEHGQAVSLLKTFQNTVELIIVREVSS
Chain of LNX1_2, Q8TBB1 (Q8TBB1 371-470): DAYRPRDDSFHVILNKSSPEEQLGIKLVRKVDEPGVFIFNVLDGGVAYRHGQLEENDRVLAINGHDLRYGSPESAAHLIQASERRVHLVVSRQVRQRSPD
Chain of ARHGEF12, Q9NZN5-2 (Q9NZN5 other isoform, or with tags, fused parts or gaps): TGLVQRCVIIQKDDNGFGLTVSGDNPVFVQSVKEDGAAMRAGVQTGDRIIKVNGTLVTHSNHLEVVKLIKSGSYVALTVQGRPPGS
Chain of TJP1_2, Q07157 (Q07157 181-274): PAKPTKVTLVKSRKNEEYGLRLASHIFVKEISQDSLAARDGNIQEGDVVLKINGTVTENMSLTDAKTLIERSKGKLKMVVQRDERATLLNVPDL

Binder	pKd (PICK1, Q9NRD5)	pKd (PDZRN4_1, Q6ZMN7)	pKd (Inadl_10, Q8NI35)	pKd (TX1BP3, O14907)	pKd (MPP2, Q14168)	pKd (APBA3_1, O96018)	pKd (TJP2_1, Q9UDY2)	pKd (APBA1_2, Q02410)	pKd (DLG3_2, Q92796)	pKd (LNX2_2, Q8N448)	pKd (MAGI3_2, Q5TCQ9)	pKd (GRIP1_2, Q9Y3R0)	pKd (DLG2_2, Q15700)	pKd (CASK, O14936)	pKd (DLG3_1, Q92796)	pKd (DLG4_3, P78352)	pKd (RADIL, Q96JH8)	pKd (DLG1_2, Q12959)	pKd (MPDZ_5, O75970)	pKd (TJP1_2, Q07157)	also measured
MLPANYVEAI [NEB, P20929]	3.94	below the threshold	below the threshold	below the threshold	below the threshold	below the threshold	below the threshold	below the threshold	4.11	below the threshold	below the threshold	below the threshold	below the threshold	below the threshold	below the threshold	below the threshold	3.65	below the threshold	below the threshold	below the threshold	pKd (LAP2, Q96RT1): below the threshold; pKd (MAGI2_4, Q86UL8): below the threshold; pKd (LNX1_2, Q8TBB1): below the threshold; pKd (SNTB1, Q13884): below the threshold; pKd (ARHGEF12, Q9NZN5-2): below the threshold; pKd (APBA1_1, Q02410): below the threshold
ADEMICITTL [CACNA1D, Q01668]	4.14	3.72	4.42	3.87	below the threshold	below the threshold	below the threshold	4.01	4.46	3.93	below the threshold	below the threshold	3.81	below the threshold	3.56	below the threshold	4.62	4.06	below the threshold	below the threshold	pKd (LAP2, Q96RT1): 3.66; pKd (MAGI2_4, Q86UL8): below the threshold; pKd (LNX1_2, Q8TBB1): below the threshold; pKd (SNTB1, Q13884): 4.84; pKd (ARHGEF12, Q9NZN5-2): 6.18; pKd (APBA1_1, Q02410): below the threshold
TKDKVQETQI [LRRC4, Q9HBW1]	below the threshold	4.6	below the threshold	4.28	below the threshold	below the threshold	below the threshold	3.55	4.57	below the threshold	4.87	below the threshold	4.67	below the threshold	3.81	4.17	below the threshold	5.03	below the threshold	3.64	pKd (LAP2, Q96RT1): 3.54; pKd (MAGI2_4, Q86UL8): 3.72; pKd (LNX1_2, Q8TBB1): below the threshold; pKd (SNTB1, Q13884): 5.08; pKd (ARHGEF12, Q9NZN5-2): 4.57; pKd (APBA1_1, Q02410): below the threshold

Second part, led by results:

pKd (PICK1, Q9NRD5)	pKd (PDZRN4_1, Q6ZMN7)	pKd (Inadl_10, Q8NI35)	pKd (TX1BP3, O14907)	pKd (MPP2, Q14168)	pKd (APBA3_1, O96018)	pKd (TJP2_1, Q9UDY2)	pKd (APBA1_2, Q02410)	pKd (DLG3_2, Q92796)	pKd (LNX2_2, Q8N448)	pKd (MAGI3_2, Q5TCQ9)	pKd (GRIP1_2, Q9Y3R0)	pKd (DLG2_2, Q15700)	pKd (CASK, O14936)	pKd (DLG3_1, Q92796)	pKd (DLG4_3, P78352)	pKd (RADIL, Q96JH8)	pKd (DLG1_2, Q12959)	pKd (MPDZ_5, O75970)	pKd (TJP1_2, Q07157)	Binder	also measured
below the threshold	below the threshold	below the threshold	4.12	below the threshold	below the threshold	below the threshold	3.84	4.15	4.22	below the threshold	below the threshold	4.16	below the threshold	3.48	3.7	3.62	4.42	below the threshold	below the threshold	EPAKETTTNV [SLC2A3, P11169]	pKd (LAP2, Q96RT1): 3.64; pKd (MAGI2_4, Q86UL8): 3.57; pKd (LNX1_2, Q8TBB1): below the threshold; pKd (SNTB1, Q13884): 4.57; pKd (ARHGEF12, Q9NZN5-2): 3.87; pKd (APBA1_1, Q02410): below the threshold
below the threshold	below the threshold	below the threshold	3.54	below the threshold	below the threshold	below the threshold	below the threshold	below the threshold	below the threshold	3.54	below the threshold	3.5	below the threshold	below the threshold	below the threshold	below the threshold	3.78	below the threshold	below the threshold	PGKKPEDSRV [SLCO2B1, O94956]	pKd (LAP2, Q96RT1): 3.52; pKd (MAGI2_4, Q86UL8): below the threshold; pKd (LNX1_2, Q8TBB1): below the threshold; pKd (SNTB1, Q13884): 3.94; pKd (ARHGEF12, Q9NZN5-2): below the threshold; pKd (APBA1_1, Q02410): below the threshold
